Results taken from the supplement of paper PMC9170038.

Tested on: MS2 coat protein
Test: apparent KD of MS2 coat protein; designed switch direction (-1 OFF switch, 1 ON switch): -1; higher = weaker reporter binding
How it was run: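 Each step of the titration lasted 0.8–1.5 h at the lowest concentration and 10–20 min at the highest. The protein, SNAP-549-labelled MS2 coat protein, went from 0.7 or 1.5 nM doubling to 3 µM over RNA switches transcribed on Illumina chips by stalled E. coli RNA polymerase. Normalised cluster fluorescence was curve-fitted, and the per-design median over clusters is given as apparent KD.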

[1] = Eterna round: R95, input ligand: microRNA oligo, concentration not stated
[2] = Eterna round: R95, input ligand: FMN 200 uM
[3] = Eterna round: R95, input ligand: none
[4] = input ligand: microRNA oligo, concentration not stated

Sequence: AAUAAGUGAGGAUAUACGUCUGGACCCGGGAGGGCUAUAUAACAUGAGGAUCACCCAUGUAGAAGGCACAAUAA [Excls2-IV] (puzzle: Exclusion 2)
- apparent KD of MS2 coat protein [1]: 16.2 nM

Sequence: AAUAAGUGAGGAUAUGCGUCUGGUCCCGGGAGGGCUAUAUAACAUGAGGAUCACCCAUGUAGAAGGCACAAUAA [Excls2IV] (puzzle: Exclusion 2)
- apparent KD of MS2 coat protein [1]: 15.2 nM

Sequence: AAUAAUAAAGUCAGGAUAUCUAGAGCUUCGGCUCUAGAGAAGGGACAUGAGGAUCACCCAUGUCACUCAAUAAU [BmEx4/3-D1] (Eterna round: R97, puzzle: Brourd's mod of Exclusion 4)
- apparent KD of MS2 coat protein (input ligand: FMN 200 uM): 21.6 nM
- apparent KD of MS2 coat protein (input ligand: none): 15.1 nM

Sequence: AAUAAUAAUGUGAGGAUAUCUAGAGCCUCGGCUCUAGAGAAGGCACAUGAGGAUCACCCAUGUCUCAAUAAUAA [BmEx4/2-E5] (Eterna round: R97, puzzle: Brourd's mod of Exclusion 4)
- apparent KD of MS2 coat protein (input ligand: FMN 200 uM): 307 nM
- apparent KD of MS2 coat protein (input ligand: none): 52.8 nM

Sequence: AAUAAUGAUAAGGAUAUCACUAGCGAUAGCUAGUGAGAAGGUAUCACAUGAGGAUCACCCAUGUGUUCCAAUAA [Ex6/6-A4] (Eterna round: R97, puzzle: Exclusion 6)
- apparent KD of MS2 coat protein (input ligand: FMN 200 uM): 35.2 nM
- apparent KD of MS2 coat protein (input ligand: none): 17 nM

Sequence: AAUAAUGGAGGAUAUACUAAAAUAUGAAUAAAAUAAAUAAAACAUGAGGAUCACCCAUGUAGAAGGCCAAAUAA [JMF's Not so obvious solution 2] (puzzle: Exclusion 2)
- apparent KD of MS2 coat protein [2]: 20.9 nM
- apparent KD of MS2 coat protein [1]: 22.7 nM
- apparent KD of MS2 coat protein [3]: 27.7 nM

Sequence: AAUAAUUGUGACAUGGGCGACAUGAGGAUCACCCAUGUUACAAGCUUGUUGCUCGUCUUAUAAUUAACCCAUGUCAC [LRO Sensor-off var1-22 mod of Stov1-13-A1 by Brourd] (Eterna round: R97, puzzle: Sensor, turn-off variant 1)
- apparent KD of MS2 coat protein (input ligand: FMN 200 uM): 16.3 nM
- apparent KD of MS2 coat protein (input ligand: none): 15.2 nM

Sequence: AAUAAUUGUGACUUGGGCGACAUGAGGAUCACCCAUGUUACAAGCUUGUUGCUCGUCUUAUAAUUAACCCAUGUCAC [LRO Sensor-off var1-23 mod of Stov1-13-A1 by Brourd] (Eterna round: R97, puzzle: Sensor, turn-off variant 1)
- apparent KD of MS2 coat protein (input ligand: FMN 200 uM): 15.8 nM
- apparent KD of MS2 coat protein (input ligand: none): 18.4 nM

Sequence: AAUACAAGCUAUUGAUCCCACAUGAGGAUCACCCAUGUAGCUGGCGGUGACACCUCCUUUACGAUAGCUCGUCUUAU [Sensor-V1 #55] (Eterna round: R97, puzzle: Sensor, turn-off variant 1)
- apparent KD of MS2 coat protein (input ligand: FMN 200 uM): 604 nM
- apparent KD of MS2 coat protein (input ligand: none): 1200 nM

Sequence: AAUACACAUGAGGAUCACCCAUGUUAGGAUAUGAGCGGGCAGACAGACAGACAGACGAUCAGAAGGAAUAGGAA [Excls1-VI] (puzzle: Exclusion 1)
- apparent KD of MS2 coat protein [2]: 25.5 nM
- apparent KD of MS2 coat protein [1]: 30.2 nM
- apparent KD of MS2 coat protein [3]: 28.9 nM

Sequence: AAUACACAUGAGGAUCACCCAUGUUAGGAUAUUAGCGGGCAGACAGACAGACAGACGAUGAGAAGGAACAGGAA [Excls1-VII] (puzzle: Exclusion 1)
- apparent KD of MS2 coat protein [2]: 23.3 nM
- apparent KD of MS2 coat protein [1]: 22.3 nM
- apparent KD of MS2 coat protein [3]: 27.7 nM

Sequence: AAUACUAACACGAAAGUGUUAGUACAAUAAGCUUGUGAAACAUGAGGAUCACCCAUGUCCUCAUAAGCUCGUCUUAA [salish99_TOv2_r3_011] (puzzle: Sensor v3, turn-off variant 2)
- apparent KD of MS2 coat protein [2]: 12.3 nM
- apparent KD of MS2 coat protein [1]: 309 nM
- apparent KD of MS2 coat protein [3]: 13.1 nM

Sequence: AAUAGCUAAGGAUAUACAUGAGGAUCACCCAUGUAAAACACUACUUGGAACCGCCUCGGUAGAAGGUAGAAAAU [Arbean] (puzzle: Exclusion 3)
- apparent KD of MS2 coat protein [1]: 21.5 nM

Sequence: AAUAUACUAGGAUAUACAUGAGGAUCACCCAUGUCCGCAUAUUGGGAUCUUAGACCUUGUAGAAGGAGUGGACG [Eternabot (L2) Solution 15] (Eterna round: R97, puzzle: Exclusion 3)
- apparent KD of MS2 coat protein (input ligand: FMN 200 uM): 99.2 nM
- apparent KD of MS2 coat protein (input ligand: none): 97.6 nM

Sequence: AAUAUUAGAGGAUAUACAGUUUAUUACAUGAGGAUCACCCAUGUUCUUCAAUGUAUAUAAGUAGAAGGCUAAGGAA [EX-5 Malc#2] (puzzle: Exclusion 5)
- apparent KD of MS2 coat protein [2]: 157 nM
- apparent KD of MS2 coat protein [1]: 42.6 nM
- apparent KD of MS2 coat protein [3]: 43.7 nM

Sequence: AAUCAGUGUGUGAGGAUAUUGGUGGAGUGACUUAUUAAGAAGGCACAUGAGGAUCACCCAUGUGGGAAGUCAGG [JR_BMEx4_Sub017] (Eterna round: R97, puzzle: Brourd's mod of Exclusion 4)
- apparent KD of MS2 coat protein (input ligand: FMN 200 uM): 13.9 nM
- apparent KD of MS2 coat protein (input ligand: none): 14.8 nM

Sequence: AAUCCACAUGAGGAUCACCCAUGUCAGGAUAUCUUUGGCCUAACAUGUUAGGACCGUUAGAGAAGGGACACGAU [EX1 B.28] (Eterna round: R97, puzzle: Exclusion 1)
- apparent KD of MS2 coat protein (input ligand: FMN 200 uM): 70.3 nM
- apparent KD of MS2 coat protein (input ligand: none): 18.2 nM

Sequence: AAUCCACAUGAGGAUCACCCAUGUGAGGAUAUGUCCAUAUUCGGCAAAUCGGAUAUGGACAGAAGGCACAUAAA [JR_Exclusion1_Sub013] (Eterna round: R96, puzzle: Exclusion 1)
- apparent KD of MS2 coat protein (input ligand: FMN 200 uM): 99.5 nM
- apparent KD of MS2 coat protein [4]: 21 nM
- apparent KD of MS2 coat protein (input ligand: none): 26.5 nM

Sequence: AAUCCACAUGAGGAUCACCCAUGUGAGGAUAUGUCCAUAUUCGGCAAAUCGGAUAUGGACAGAAGGCACAUAAA [JR_Exclusion1_Sub013] (puzzle: Exclusion 1)
- apparent KD of MS2 coat protein [1]: 28.3 nM

Sequence: AAUCCUGAAGUUAGGAUAUGAAGUAUCACUACACUUCAGAAGGAACUUGAGGAUCACCCAAGUAGCCGUGAGGC [jl-bmx4.4.63 ViennaUCT mod] (Eterna round: R97, puzzle: Brourd's mod of Exclusion 4)
- apparent KD of MS2 coat protein (input ligand: FMN 200 uM): 96 nM
- apparent KD of MS2 coat protein (input ligand: none): 20.3 nM

Sequence: AAUCUACAUGUAGGAUAUGCGUGGCGAAGCUAUGCAGAAGGACAUGAGGAUCACCCAUGUUUUAGCGUCUGCGUACAGAUGCGA [Mat - Exclusion NG 1 - Mod of JL - D99] (Eterna round: R96, puzzle: Exclusion NG 1)
- apparent KD of MS2 coat protein (input ligand: FMN 200 uM): 269 nM
- apparent KD of MS2 coat protein [4]: 24.4 nM
- apparent KD of MS2 coat protein (input ligand: none): 27.2 nM

Sequence: AAUGAUGAUGUGAGGAUAUACAUAGUUAGACCGUAGUAGAAGGCACAUGAGGAUCACCCAUGUAGAUGUAAGGU [JR_BME4_Sub002] (puzzle: Brourd's mod of Exclusion 4)
- apparent KD of MS2 coat protein [2]: 26.3 nM
- apparent KD of MS2 coat protein [1]: 17 nM
- apparent KD of MS2 coat protein [3]: 17.7 nM

Sequence: AAUGAUUGACGAGGAUAUUGUGGUAGAUCACGACGAGAAGGCGUCUGUCACAUGAGGAUCACCCAUGUGAGCUUUGUGGAUAGA [Ex NG1 #73] (Eterna round: R96, puzzle: Exclusion NG 1)
- apparent KD of MS2 coat protein (input ligand: FMN 200 uM): 51.6 nM
- apparent KD of MS2 coat protein [4]: 37.4 nM
- apparent KD of MS2 coat protein (input ligand: none): 72.2 nM

Sequence: AAUGGGCAAGCAUGAUCCCACAUGAGGAUCACCCAUGUGUUCGUCUUAUAGGCUGCUGAGGCUUUUGCCUCGGUGGC [LRO Sensor-off var1-03 loose mod of D91 from Mat747] (Eterna round: R97, puzzle: Sensor, turn-off variant 1)
- apparent KD of MS2 coat protein (input ligand: FMN 200 uM): 850 nM
- apparent KD of MS2 coat protein (input ligand: none): 1370 nM

Sequence: AAUUAAACAAGCAGAUCCCACAUGAGGAUCACCCAUGUGCUCGUCUUAUAAGGUACUGUGACGAUAGUCACGGUACC [Mat - Sensor, turn-off var - Eli Mod - D65] (Eterna round: R97, puzzle: Sensor, turn-off variant 1)
- apparent KD of MS2 coat protein (input ligand: FMN 200 uM): 44.6 nM
- apparent KD of MS2 coat protein (input ligand: none): 42.7 nM

Sequence: AAUUAAUAUCAGGAUAUGACGUGCUUCGGCACGUCAGAAGGGAUGACAUGAGGAUCACCCAUGUGAUCAAUUAA [E6/1-A1] (Eterna round: R97, puzzle: Exclusion 6)
- apparent KD of MS2 coat protein (input ligand: FMN 200 uM): 105 nM
- apparent KD of MS2 coat protein (input ligand: none): 28.6 nM

Sequence: AAUUAAUGUGUGAGGAUAUUGAUGGAAUGACUUAUUAAGAAGGCACAUGAGGAUCACCCAUGUGGGAAGUCACG [JR_BMEx4_Sub015] (Eterna round: R97, puzzle: Brourd's mod of Exclusion 4)
- apparent KD of MS2 coat protein (input ligand: FMN 200 uM): 27.6 nM
- apparent KD of MS2 coat protein (input ligand: none): 18.6 nM

Sequence: AAUUAGCAAGCGAGAUCCCACAUGAGGAUCACCCAUGUGCUCGUCUUAUAAAAGACUGUGACGAAAGUCACGGUCAC [Mat - Sensor, turn-off var - Eli Mod - D26] (Eterna round: R97, puzzle: Sensor, turn-off variant 1)
- apparent KD of MS2 coat protein (input ligand: FMN 200 uM): 14 nM
- apparent KD of MS2 coat protein (input ligand: none): 15.9 nM

Sequence: AAUUAUAGAGGAUAUACAGAUUAAUACAUGAGGAUCACCCAUGUUCUUCAAUGUAUAUAUGUAGAAGGCUAAGGAA [JR_Ex5_Sub091] (Eterna round: R97, puzzle: Exclusion 5)
- apparent KD of MS2 coat protein (input ligand: FMN 200 uM): 181 nM
- apparent KD of MS2 coat protein (input ligand: none): 238 nM

Sequence: AAUUAUUAUUGAGGAUAUCGUAUUGAAACAAUACGAGAAGGCGGGAUAAACAUGAGGAUCACCCAUGUGAGCCUGAUGCUUGUG [Ex NG1 #41] (Eterna round: R96, puzzle: Exclusion NG 1)
- apparent KD of MS2 coat protein [4]: 13.4 nM

Sequence: AAUUAUUGAUGAGGAUAUUGUGGUGAAACACGACAAGAAGGCAUUAUUCACAUGAGGAUCACCCAUGUGAGCCUGAUGCAUAUA [Ex NG1 #60] (Eterna round: R96, puzzle: Exclusion NG 1)
- apparent KD of MS2 coat protein [4]: 11.5 nM

Sequence: AAUUAUUGAUGAGGAUAUUGUGGUGAAACACGACAAGAAGGCAUUAUUCACAUGAGGAUCACCCAUGUGAGCCUGGUGCAUAUA [Ex NG1 #61] (Eterna round: R96, puzzle: Exclusion NG 1)
- apparent KD of MS2 coat protein [4]: 11.6 nM

Sequence: AAUUAUUGAUGAGGAUAUUGUGGUGAAACACGACGAGAAGGCAUAUGUCACAUGAGGAUCACCCAUGUGAGCCUUGUGGAUAUA [Ex NG1 #65] (Eterna round: R96, puzzle: Exclusion NG 1)
- apparent KD of MS2 coat protein [4]: 43.5 nM

Sequence: AAUUAUUGAUGAGGAUAUUGUGGUGAAACACGACGAGAAGGCAUUUGUCACAUGAGGAUCACCCAUGUGAGCCUUGUGCAUAUA [Ex NG1 #63] (Eterna round: R96, puzzle: Exclusion NG 1)
- apparent KD of MS2 coat protein (input ligand: FMN 200 uM): 25.2 nM
- apparent KD of MS2 coat protein [4]: 18.7 nM
- apparent KD of MS2 coat protein (input ligand: none): 15.1 nM
